Data as given in PMC4839745.

Molecular target: HARE(ΔM3) single-motif deletion cytoplasmic domain mutant lacking NPLY2519
Experiment: co-IP; HARE variants precipitated from cell lysate (300 μg protein) with goat anti-V5 Ab (2 μg/ml) and Protein A/G Plus Agarose, 4°C; blot with anti-tERK1/2 Ab; cells incubated with or without 10 μg/ml (709 nM) UFH for 20 min; Lysis Buffer with 0.5% Nonidet P-40

Row | Substance | percent decrease of association (tERK:HARE ratio) against WT HARE
1 | ERK2 (of ERK1/2, p44/42) (from UniProt P28482 1-360) (enzyme) | 67%
2 | ERK1 (of ERK1/2, p44/42) (from UniProt P27361 1-379) (enzyme) | 67%
